Assay results published in US12454527B2, “Conjugate monomethyl auristatin E to obtain a composition for treatment of prostate cancer” (priority 2019, dated 2025).
Several values for one entry are separate records, joined by “and”; a condition that tells them apart may be missing. Equal values may be shown once. Entries after “also recorded” stand apart in the source; their conditions may differ. Starred links: 1 amine or outer side, 2 acyl side, 3 side chain; linkers in the order of their positions; H or OH if unused. Non-standard residues stand in square brackets, D forms with d. Residues, ends and D or L forms follow the SMILES beside them. ξ: configuration not given here. *: point of attachment. GluureaLys(ε-3-ClBenzyl) = O=C(O)CC[C@H](NC(=O)N[C@@H](CCCCN(Cc1cccc(Cl)c1)*)C(=O)O)C(=O)O; Dolaproine = CO[C@@H]([C@@H]1CCCN1)[C@@H](C)C(=O)O; Dil = CC[C@H](C)[C@H](NC)[C@@H](CC(=O)O)OC; X1 = O=C(CCCc1cn(CCCN[*:1])nn1)[*:2]; PABC = O=C(OCc1ccc(N[*:1])cc1)[*:2]; X2 = C[C@@H](N*)[C@@H](O)c1ccccc1; Cit = NC(=O)NCCC[C@H](N)C(=O)O; Suc = O=C(CCC(=O)[*:2])[*:1]; NMeV = CN[C@H](C(=O)O)C(C)C; ξV = CC(C)C(N)C(=O)O; Ahx = NCCCCCC(=O)O

Test: Acute toxicity study, single intravenous administration, rats
Type: in vivo
Settings: for Necropsy (per animal): day 14; for Necropsy (per animal) / Necropsy / Signs of intoxication / Body weight dynamics in % of initial body weight, Day 5 (individual animals) / Body weight dynamics in % of initial body weight, Day 10 (individual animals) / Body weight dynamics in % of initial body weight, Day 14 (individual animals): listed as test drug; for Body weight dynamics in % of initial body weight, Day 5, M ± SD / Body weight dynamics in % of initial body weight, Day 5 (individual animals) / Body weight dynamics in % of initial body weight, Day 10, M ± SD / Body weight dynamics in % of initial body weight, Day 10 (individual animals) / Body weight dynamics in % of initial body weight, Day 14, M ± SD / Body weight dynamics in % of initial body weight, Day 14 (individual animals): single administration; for Body weight dynamics in % of initial body weight, Day 5, M ± SD: Day 5, group mean; for Body weight dynamics in % of initial body weight, Day 10, M ± SD: Day 10, group mean; for Body weight dynamics in % of initial body weight, Day 14, M ± SD: Day 14, group mean
Text: Acute toxicity study of Conjugate (I) product on mice and rats.
• 1. Conjugate (I). • 2. Solubilizer Pluronic F127—in the amount, five-fold greater than the conjugate amount by weight. • 3. Diluent Haemodes infusion solution. • 4. Dimethyl sulfoxide—in the amount of 5% of the prepared volume.
The experiment took white outbred male mice aged about 2 months with body weight of 19-21,g, and also white outbred mature male rats aged about 2 months with body weight 190-210 g.
Acute toxicity study was performed within the intravenous administration. Before the start of the experiment to determine an acute toxicity, the animals were deprived of food and water (mice were deprived for 2 hours, rats—for 10-12 hours), and then weighed. Then each animal received the intravenous drug injection according to the study design, in a volume not exceeding the acceptable single injection volume: 0.5 mL for mice, 2 mL for rats, and fractionally if necessary. The control group of animals received Pluronic solution in Haemodes in the proportion used fort dose preparation of 78 mg/kg for mice and 38 mg/kg for rats. The duration of observation for laboratory animals was 14 days. During this period, visible signs of intoxication were assessed (see Table 9).

[1] = 3 mg/kg, group 11, males, 3 mg/kg
[2] = 4 mg/kg, group 12, males, 4 mg/kg

With `CC[C@H](C)[C@@H]([C@@H](CC(=O)N1CCC[C@H]1[C@H](OC)[C@@H](C)C(=O)N[C@H](C)[C@@H](O)c1ccccc1)OC)N(C)C(=O)[C@@H](NC(=O)[C@H](C(C)C)N(C)C(=O)OCc1ccc(NC(=O)[C@H](CCCNC(N)=O)NC(=O)C(NC(=O)CCCc2cn(CCCNC(=O)[C@H](Cc3ccc(O)cc3)NC(=O)[C@H](Cc3ccccc3)NC(=O)CCC(=O)NCCCCCC(=O)N(CCCC[C@H](NC(=O)N[C@@H](CCC(=O)O)C(=O)O)C(=O)O)Cc3cccc(Cl)c3)nn2)C(C)C)cc1)C(C)C` (some centres unmarked) [Conjugate (I)] ({GluureaLys(ε-3-ClBenzyl)-Ahx-Suc}-FY[X1][ξV][Cit][PABC][NMeV]V[Dil][Dolaproine]-X2) the Fatality (male rats, i.v. 5.1 mg/kg) was 4, the Fatality (male rats, i.v. 5.4 mg/kg) was 10 and the MTD at 14 days (male, white outbred, rat, in vivo, iv, rats, single i.v., read-out: Maximum tolerated dose) was 4 mg/kg. The “Necropsy (per animal)” value (rats, 1 mg/kg i.v., 1 mg/kg) was 1- NORMAL and 2- NORMAL and 3- light kidneys and 4- NORMAL and 5- NORMAL and 6- light kidneys, blurred pattern lines and 7- adrenals glands had hemorrhages, kidneys are and 8- light kidneys and 9- large spleen, granular kidneys and 10- kidneys with hemorrhages, the “Necropsy (per animal)” value (rats, 2 mg/kg i.v., 2 mg/kg) was 1- very light kidneys, unclear pattern, large spleen and 2- light-brown kidneys, dark adrenal glands with and 3- light-brown kidneys with hemorrhages, kidney cut and 4- light-brown kidneys with hemorrhages, kidney cut and 5- kidneys are lighter than a standard and 6- kidneys are almost standard, dark and increased and 7- spotted liver, light kidneys, their structure is visible and 8- liver is lighter than a standard, light kidneys and 9- dark maroon pancreas, increased and bloody adrenal and 10- dark maroon pancreas, kidneys with hemorrhages, and the “Necropsy (per animal)” value (rats, 3 mg/kg i.v., 3 mg/kg) was 1- light kidneys with hemorrhages and 2- light kidneys with hemorrhages, blurred pattern and 3- light kidneys with hemorrhages and 5- standard kidneys and 6- kidneys with hemorrhages, clear cut pattern and 7- light, spotted, unevenly stained kidneys and 8- light kidneys and 9- light kidneys, increased adrenal glands, kidneys with and 10- kidneys with hemorrhages, dark and increased. For the same compound, the “Necropsy (per animal)” value (rats, 4 mg/kg i.v., 4 mg/kg) was 1- kidneys with hemorrhages, unclear pattern and 2- spotted kidneys with hemorrhages, clear pattern and 3- increased right adrenal gland, standard kidneys and 4- slightly increased adrenal glands, with hemorrhages, and 5- spotted kidneys with hemorrhages, clear pattern and 6- standard kidney color, blurred cut pattern, unclear and 7- kidney surface hemorrhages, visible pattern and 8- light kidneys with hemorrhage foci, unclear pattern of and 9- slightly increased, hyperemic adrenal glands, kidney and 10- standard kidneys, the Necropsy (rats, 4.5 mg/kg i.v., dead No. 4 and survivors day 14, 4.5 mg/kg) was “increased and hyperemic kidneys; spotted, dark kidneys;; also recorded: Only rat No. 5 had Sight kidneys; also recorded: Others had standard ones” and the Necropsy (rats, 5 mg/kg i.v., dead animals and survivors day 14, 5 mg/kg) was 2 - light brown kidneys with greenish shade, blurry cut and All rats had a large spleen. For the same compound, the Necropsy (rats, 5.1 mg/kg i.v., survivors day 14, 5.1 mg/kg) was “One animal had increased adrenal glands, very light; also recorded: Others had standard ones”, the “Toxic effect (summary)” value (rats, acute i.v.) was “diarrhea and the renal damage” and the Signs of intoxication (rats, single i.v. 1 mg/kg, 1 mg/kg) was “No diarrhea was observed on Day 5”. The Signs of intoxication (rats, single i.v. 3 mg/kg, 3 mg/kg) was “All animals experienced diarrhea on Day”, the Signs of intoxication (rats, single i.v. 4.5 mg/kg, 4.5 mg/kg) was “Decreased mot. activity - 5-40 minutes; also recorded: Shortness of breath - 1-60 minutes; also recorded: diarrhea, cachexia, porphyria, decreased” and the Signs of intoxication (rats, single i.v. 5 mg/kg, 5 mg/kg) was “All animals developed diarrhea/cachexia”. The Signs of intoxication (rats, single i.v. 5.1 mg/kg, 5.1 mg/kg) was “Decreased mot. activity - 5-40 minutes; also recorded: Shortness of breath - 1-60 minutes; also recorded: Days 1-2 - all animals had diarrhea,; also recorded: Death cases occurred in 2 days (2), 4”, the Signs of intoxication (rats, single i.v. 5.4 mg/kg, 5.4 mg/kg) was “Decreased mot. activity - 5-40 minutes; also recorded: Shortness of breath - 1-60 minutes; also recorded: Days 1-2 - all animals had diarrhea,; also recorded: No standard achieved; also recorded: Two animals had the hindlimb paresis” and the Signs of intoxication (rats, single i.v. 6 mg/kg, 6 mg/kg) was “on Day 2 - all animals showed diarrhea”. The Signs of intoxication (rats, single i.v. 8 mg/kg, 8 mg/kg) was “diarrhea, general starvation, adynamia”, the “Body weight dynamics in % of initial body weight, Day 5, M ± SD” value (3 mg/kg, group 11, males) was −0.2 ± 7.1% and the “Body weight dynamics in % of initial body weight, Day 5 (individual animals)” value [1] was −1.5% and −11.2% and −5.1% and 10.8% and −9.4% and 5.5% and 1.4% and −2.4% and 2.0% and 7.6%. The “Body weight dynamics in % of initial body weight, Day 10, M ± SD” value (3 mg/kg, group 11, males) was 17.2 ± 6.1%, the “Body weight dynamics in % of initial body weight, Day 10 (individual animals)” value [1] was 17.3% and 5.9% and 16.4% and 25.1% and 11.4% and 20.1% and 19.7% and 17.1% and 13.2% and 26.1% and the “Body weight dynamics in % of initial body weight, Day 14, M ± SD” value (3 mg/kg, group 11, males) was 22.8 ± 6.0%. The “Body weight dynamics in % of initial body weight, Day 14 (individual animals)” value [1] was 20.8% and 10.1% and 20.0% and 29.1% and 16.8% and 27.1% and 26.4% and 23.8% and 24.9% and 29.4%, the “Body weight dynamics in % of initial body weight, Day 5, M ± SD” value (4 mg/kg, group 12, males) was −7.7 ± 7.6% and the “Body weight dynamics in % of initial body weight, Day 5 (individual animals)” value [2] was 6.1% and −15.2% and −5.9% and 0.0% and −3.0% and −4.1% and −13.7% and −17.1% and −9.2% and −14.4%. For the same compound, the “Body weight dynamics in % of initial body weight, Day 10, M ± SD” value (4 mg/kg, group 12, males) was 11.0 ± 11.5%, the “Body weight dynamics in % of initial body weight, Day 10 (individual animals)” value [2] was 25.5% and 2.5% and 16.3% (2×) and 22.2% and 19.1% and 5.9% and −10.5% and 14.5% and −1.9% and the “Body weight dynamics in % of initial body weight, Day 14, M ± SD” value (4 mg/kg, group 12, males) was 20.1 ± 12.1%. For the same compound, the “Body weight dynamics in % of initial body weight, Day 14 (individual animals)” value [2] was 35.2% and 11.7% and 24.6% and 31.7% and 28.1% (2×) and 18.0% and 1.0% (2×) and 21.7% and the LD50 at 14 days (white outbred, rat, in vivo, iv, male rats, single i.v., read-out: LD50 (median lethal dose)) was 4.9 mg/kg.
